This is an account of results in US6319685A (Unigene Laboratories, Inc., priority 1987, dated 2001).

Data set [1] is described as follows: specific alpha-amidating activity, conversion of Dansyl-D-Tyr-Val-Gly to Dansyl-D-Tyr-Val-CONH2. It is filed as biochemical. As to conditions: CA-77 media. Here is the method:
These and other objects will become apparent from a thorough reading of the present disclosure. […] All specific activity units set forth herein are based upon the conversion of Dansyl-D-Try-Val-Gly-COOH to Dansyl-D-Tyr-Val-CONH2. One mU is defined as the amount of activity needed to convert one nanomole (nmole) of Dansyl-D-Tyr-Val-Gly-COOH to one nmole of Dansyl-D-Tyr-Val-CONH2 per minute at 37° C. and pH 7.0 in the presence of ascorbate ions at a concentration of 3 mM (based on total reaction mixture including enzyme, substrate, co-factors, etc.), molecular oxygen in a molar excess over substrate and a concentration of cupric ions effective to maximize activity (usually about 2 μM depending on the state of purity of the enzyme).
Each purification step can be monitored for both protein content and the level of alpha-amidation activity. This information is used to calculate the specific activity of the enzyme which serves as an indicator of the relative purity of the enzyme.
Sephacryl S-300 (Pharmacia) was equilibrated in 50 mM Tris HCl pH 7.0 and poured into a K 50/100 column (Pharmacia) according to the manufacturer's instructions. The bed volume of the column was approximately 1.3 liters. The Sample was loaded onto the column in a volume representing approximately 3 percent of the bed volume of the column. Proteins were eluted from the column in 50 mM Tris HCl pH 7.0 at a flow rate of approximately 2 ml per minute.
The reaction mixture for the conversion of the monodansyl substrate contained:
The samples were prepared in duplicate and incubated at 37° C. for 10, 20 and 30 minutes time periods. The enzymatic reaction was halted by the addition of 10 ul 500 mM EDTA.

Data set [2] in a line: nonspecific proteolytic activity of enzyme preparation. It is filed as biochemical. As to conditions: CA-77 media, after DEAE and Sephacryl 300-SF.

B1: alpha-amidating enzyme (CA-77): alpha-amidating enzyme derived from CA-77 cell tissue culture media (protein, UniProt P14925 36-976, looked up)
Peptidylglycine …: FKETTRSFSNECLGTIGPVTPLDASDFALDIRMPGVTPKESDTYFCMSMRLPVDEEAFVIDFKPRASMDTVHHMLLFGCNMPSSTGSYWFCDEGTCTDKANILYAWARNAPPTRLPKGVGFRVGGETGSKYFVLQVHYGDISAFRDNHKDCSGVSVHLTRVPQPLIAGMYLMMSVDTVIPPGEKVVNADISCQYKMYPMHVFAYRVHTHHLGKVVSGYRVRNGQWTLIGRQNPQLPQAFYPVEHPVDVTFGDILAARCVFTGEGRTEATHIGGTSSDEMCNLYIMYYMEAKYALSFMTCTKNVAPDMFRTIPAEANIPIPVKPDMVMMHGHHKEAENKEKSALMQQPKQGEEEVLEQGDFYSLLSKLLGEREDVHVHKYNPTEKTESGSDLVAEIANVVQKKDLGRSDAREGAEHEEWGNAILVRDRIHRFHQLESTLRPAESRAFSFQQPGEGPWEPEPSGDFHVEEELDWPGVYLLPGQVSGVALDSKNNLVIFHRGDHVWDGNSFDSKFVYQQRGLGPIEEDTILVIDPNNAEILQSSGKNLFYLPHGLSIDTDGNYWVTDVALHQVFKLDPHSKEGPLLILGRSMQPGSDQNHFCQPTDVAVEPSTGAVFVSDGYCNSRIVQFSPSGKFVTQWGEESSGSSPRPGQFSVPHSLALVPHLDQLCVADRENGRIQCFKTDTKEFVREIKHASFGRNVFAISYIPGFLFAVNGKPYFGDQEPVQGFVMNFSSGEIIDVFKPVRKHFDMPHDIVASEDGTVYIGDAHTNTVWKFTLTEKMEHRSVKKAGIEVQEIKEAEAVVEPKVENKPTSSELQKMQEKQKLSTEPGSGVSVVLITTLLVIPVLVLLAIVMFIRWKKSRAFGDHDRKLESSSGRVLGRFRGKGSGGLNLGNFFASRKGYSRKGFDRVSTEGSDQEKDEDDGTESEEEYSAPLPKPAPSS
With B1, in data set [1] (after DEAE and Sephacryl 300-SF), the activity result is recorded as “at least 50 mU/mg protein”. In addition, the specific activity in data set [1] (fractions from DEAE weak anion exchange cartridge) is 10-15 mU/mg. Further, the nonspecific proteolytic activity result in data set [2] is “free of nonspecific proteolytic activity”.
